Assay: yeast display, Sf9 membrane polyspecificity reagent, FACS + sequencing; frameworks hold sequencing errors
Outline: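 Sorting gates, low and high (top ~1%), were placed on anti-HA fluorescence to track expression and on streptavidin fluorescence to track reagent binding. A clone's polyreactivity label is taken from the gate it came out of. The reagent was 10% biotinylated, detergent-solubilized Sf9 membrane, applied for 1 hour at 4 °C to galactose-induced yeast display cells.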

| Sequence | polyreactivity (PSR sort gate) |
| --- | --- |
| QVQLVESGGGVVQAGGSLRLSCAASGSIFNRYAMGWYRQAPGKERELVAATSSGGSTYYADSVKGRFTISRDNAKNTVYLQMNSLKPEDTAVYYCAARSRYRSTPPTYDYWGQGTQVTVSS | low polyreactivity |
| QVQLVESGGGVVQAGGSLRLSCAASGSIFRRNAMGWYRQAPGKERELVAAISWTTGSTYYADSVKGRFTISRDNAKNTVYLLMNSLKAEDTSVYYCAAVIRSRYSYYEYDFWGQGTKVTVSS | high polyreactivity |
| QVQLVESGGGVVQAGGSLRLSCAASGSTFTTNAMGWYRQAPGKDREFVAAIRRTSGRTYYADSVKGRFTISRDNAKNTVYLQMNSLKPEDTAVFYCATDSYSPYGLKSRYDYWGQGTQVTVSS | high polyreactivity |
| QVQLVESGGGVVQAGGSLRVRCAASGIIYFIDYAMGWYRQAPGKERELVAAITSGGSTNYADSVKGRFTISRDNAKYTVYLQKNRLKPEDTAVYYCAAYLYSGSQYYFWGQGTQVIVSS | high polyreactivity |
| QVQLVESGGGVVQAGGSLRVSCAASGRIFYGNAMGWYRQAPGKERELVAVISSGGSTYYADSVKGRFTISRDNAKNTVYFQMNSLKPEDTAVYYCAAQVRKYKDGSFRYHYWGQGTQVNVSS | high polyreactivity |
| QVQLVESGGGVVQAGRSLRLSCAASGSTFWAYLMGWYRQAPGIERELVASISRGGSTNYTDSVKGRFTISRDNAKNTVYLQMNSLKPEDTEVYYCAKRPYPYKYDYWGQGRQVTVSS | high polyreactivity |
| QVQLVESGGGVVQARGSLRLSCAASGSTFDVNAMGWYRQAPWKDRELVAAISWNSGTTYYADSVKGRFTISRDNAKNSVYLQMNSLKPEDTAVYYCAASYGTGRRSKYGYWGQGTQVTVSS | high polyreactivity |
| QVQLVESGGPLVQAGGSLLLSCAASGFTFTVYAKGWYRQAPGKERELVAAITYNGGSTYYADSVKGRFTISRDNAKNTVYLQMNSLKPEDTAVYYCAAEVFLRSLGYWYDFWGLGTQVTVSS | high polyreactivity |
| QVQLVESGGRIVQAGGSLRLICAASGRIFVRNAMGWYRQAPGKERELVAAITTSGGRTYYADSVKGRFTISRDNAKNTVYLQMNSLKPEDTAVYYCAADTRYRNYPYYYWGQGTQVTVSS | high polyreactivity |
| QVQLVESGGRIVQAGGSLRLICASSGLIFYDNMGWYRQAPGKERELVAAISSSGGSRTYADSVKGRFTISRDNAKNTVYLQMNSLKPEDTAVYYCAVDKHYYGRYGVTYDYDYWGQGTQVTVSS | low polyreactivity |
| QVQLVESGGRIVQAGGSLRLSCAASGFIYSKYAMGWSRPAPGKEGQLVAAISSSGGYTYYADSVKGRFTISRDNAKNTVYLQMNSLKPEATAVYYCNADYLFYAFDYWGHGTQVTVSS | low polyreactivity |
| QVQLVESGGRIVQAGGSLRLSCAASGSTFLYYDMGWYRQAPGKERELVAAITNGGNTYYADSVKGRFTISRDNAKNTVYLQKNSRKPEDTAVYYCAKLYTDAIVWSAYDYWGQGTQVTVSS | low polyreactivity |
| QVQLVESGGRLFQAGGSLRLSCAACGFTIPYYAMRWYRKAPGKERELVAAIDWTGGSTYYADSVKGRFTISRDKAKNTVYLQMNSRKPEETEVYYCAREVDYSISSPTPPVVELDYWGQGTQVTVSS | low polyreactivity |
| QVQLVESGGRLFQAGGSLRLSCAASGRIFYHNALGWYRQAPGKERELVADNASGGSTYYADSVKARFTISRDNAKNTVYLQMNSLKPEDTAVYYCAAEDEDSIFPFPYGAGSLFDFWGQGTQVTVSS | low polyreactivity |
| QVQLVESGGRLGQAVGSLRLSCAASGSIFLQNAMGWYRQAPGKERELVAAITNGGSTNYADSVKGRCTISRDNAKNTVYLQINSLKPEDTAVYYCAAYPLYTGSYDRGGYWGLGTQVTVSS | low polyreactivity |
| QVQLVESGGRLVEAGGSLRLSCAASGRTIPAYALGWYRQAPGKERELVAGISYRGGSTYYADSVKGRFTISRDKAKNTVYLPMNSLKPEDTAVYYCARVYSRNKGVYWGQGTQVPVSS | low polyreactivity |

| Sequence | polyreactivity (PSR sort gate) |
| --- | --- |
| QVQLVESGGRLVQAGGILRLSCAASGLTFADNAMGWYRQAPGKERELVATISYSGGSTYYADSVKGRFTISRDNAKNTVYLQMNSLKPEDTAVYYCATVWETKAYSRIQWYYYWGQGTQVTVSS | low polyreactivity |
| QVQLVESGGRLVQAGGRLRLSCAASGFTFGSYAMGWYRQAPGKERELVPSISSAGRTYYADSVKGRFTISRDNAKNTVYLQMNSLKPEDTAVYYCNTDSRVTIYDYDYWGQGTQVTVSS | low polyreactivity |
| QVQLVESGGRLVQAGGSIRLICAASGFTFIGYAMGWYRQAPGKERELVADITYSGSSTYYADSVKGRFTISRDNAKNTVYLQMNSLKPEDTAVYYCAAEAYYYCFDVDYWGQGTLVTVSS | low polyreactivity |
| QVQLVESGGRLVQAGGSLLLSCAASGIIFYDYAMGWYRRAPGKERQLVAAITSGGSTNYADSVKGRFTISRDNAKNTVYLQMNSLKPEDTAVYYCAATYWSWISLRWYEYYYWGEGTQVTVSS | low polyreactivity |
| QVQLVESGGRLVQAGGSLRLLCAASGLILHKYAMGWYRQAPGKERELVASINSGANTNYADSVKGRFTISRDNAKNTVYLQMNSLKPEDTAVYYCNADPGFRSGDYGYSSFDYGGQGTQVTVSS | low polyreactivity |
| QVQLVESGGRLVQAGGSLRLRCAASGRIIAYYAMGWYRQAPGKERELVAAISRSGGSTYYADSVKGRFTISRDTAQNYVYLQMNSLKPEDTAVYYCAASLIVPYATMNYWGQGTQVTVSS | high polyreactivity |
| QVQLVESGGRLVQAGGSLRLSCAAAGSTIPKYAMGWYRQPPGKERELVAAITWRGGSTYYADSVKGRFTISRDNAKNTVYLQMNSLKPEDTAVDYCAAEPYYPSRMDYWGQGTQVTVSS | low polyreactivity |
| QVQLVESGGRLVQAGGSLRLSCAASGFIFPRYTRGWYRQAPGKESELVAGITLRGGSTYYADSVKGRFTISRDNAKNTVYLQMNSLKPEDTAVYYCARGISRGRSFGIGYDYWGQGTQVTVSS | low polyreactivity |
| QVQLVESGGRLVQAGGSLRLSCAASGFIFSRYAMGWSRQAPGKERELVAAISRGGSTNYADSVMGRFTISRDNAKNTVYLQMNSLKPEDTAVYYCAVRQIVRYYYWGQGTQVTVSS | high polyreactivity |
| QVQLVESGGRLVQAGGSLRLSCAASGFILLAYAMGWYRQAHGKERELVAAITSGGSTHYADSVKGRFTISRDNAKNTVYLQMNSLKPEDTAVYYCAKDTVFRYSGNTYGYWGQGTQVTVSS | low polyreactivity |
| QVQLVESGGRLVQAGGSLRLSCAASGFILTSYAMGWYRQAPGKERELVAAISSRGGRTYYADSVKGRFTISRDNAKNTVYLQMNSLKPEDTAVYYCNAVVYVVGDFDYWGQGTQVTGSS | high polyreactivity |
| QVQLVESGGRLVQAGGSLRLSCAASGGTFGQYAMGWYRQAPGKERELVAAISRGGDSTYSADSVKGRFTISRDNAKNTVYLQMNSLKPADTAVYYCAAPGISYYSRYYYRTYDYWGQGTQVTVSS | high polyreactivity |
| QVQLVESGGRLVQAGGSLRLSCAASGIIFPYYAMGWYRPAPGTVRELVAGISSSGGITYADSVKGRYTISRDNAKNTVYLPMNSLKPEDTAVYYCNAEYQWLEYDYWGQGTQVTVSS | low polyreactivity |
| QVQLVESGGRLVQAGGSLRLSCAASGITLNRNAMGWYRQEPGKESELVARISRRGGTTYYADSVKGRFTISRYYAKNTVYLQMNSLKPEDTAVYYCAASYSDRKLTDYWGQRTQVTVSS | high polyreactivity |
| QVQLVESGGRLVQAGGSLRLSCAASGLIFADYTMGWYRQAPGKERELVAVITDGDSTYYADSVKGRFTISRDNAKNTVYLQMNSLKPEDTAVYYCAARSAILKSGYLMDYWGQGTQVTVSS | low polyreactivity |

Source: the nanobody polyreactivity screen of Harvey et al. (2022)
